# Test system: Escherichia coli TOP10
# Assay: shrunken log2 fold change of peptide-encoding DNA abundance (4.5 h post-induction vs induction); higher = less antimicrobial activity (less host growth inhibition)
# Conditions: time post-induction: 4.5 h; library: site-saturation at positions 5, 18, 19, 20
# 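Note: peptides expressed intracellularly from a pBAD plasmid library in pooled LB shake-flask culture, induced with 0.3% L-arabinose, DNA abundance read by NGS, three biological replicates, DESeq2 with apeglm shrinkage.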
row,Sequence,shrunken log2 fold change
1,RRIRIRPPRLPRPRPRPPGTPRP,0.029
2,RRIRIRPPRLPRPRPRPAFLPRP,-0.279
3,RRIRNRPPRLPRPRPRPCCGPRP,-0.148
4,RRIRLRPPRLPRPRPRPLLLPRP,-0.00929
5,RRIRYRPPRLPRPRPRPGGMPRP,-0.297
6,RRIRQRPPRLPRPRPRPCWFPRP,-0.257
7,RRIRSRPPRLPRPRPRPNRAPRP,-0.0803
8,RRIRPRPPRLPRPRPRPLQHPRP,-0.17
9,RRIRSRPPRLPRPRPRPMFIPRP,-0.212
10,RRIRSRPPRLPRPRPRPEWWPRP,0.0594
11,RRIRPRPPRLPRPRPRPDLFPRP,0.0947
12,RRIRWRPPRLPRPRPRPWRKPRP,-0.139
13,RRIRWRPPRLPRPRPRPQRQPRP,0.123
14,RRIRQRPPRLPRPRPRPGTGPRP,-0.121
15,RRIRHRPPRLPRPRPRPMWLPRP,-0.362
16,RRIRVRPPRLPRPRPRPRLWPRP,0.45
17,RRIRTRPPRLPRPRPRPRKSPRP,-0.0508
18,RRIRARPPRLPRPRPRPSPGPRP,0.284
19,RRIRNRPPRLPRPRPRPCCSPRP,-0.0427
20,RRIRERPPRLPRPRPRPFIRPRP,-0.854
21,RRIRHRPPRLPRPRPRPQWMPRP,0.0263
22,RRIRLRPPRLPRPRPRPIGNPRP,0.0592
23,RRIRWRPPRLPRPRPRPFHLPRP,-0.818
24,RRIRARPPRLPRPRPRPLAPPRP,0.619
25,RRIRNRPPRLPRPRPRPWKDPRP,-0.00136

row,Sequence,shrunken log2 fold change
1,RRIRYRPPRLPRPRPRPFILPRP,-1.19
2,RRIRVRPPRLPRPRPRPLMHPRP,-0.249
3,RRIRRRPPRLPRPRPRPAWTPRP,1.74
4,RRIRCRPPRLPRPRPRPIWGPRP,0.25
5,RRIRIRPPRLPRPRPRPAFPPRP,-0.0288
6,RRIRARPPRLPRPRPRPSMQPRP,0.352
7,RRIRMRPPRLPRPRPRPQMRPRP,1
8,RRIRFRPPRLPRPRPRPRGDPRP,0.477
9,RRIRDRPPRLPRPRPRPDHCPRP,-0.00174
10,RRIRSRPPRLPRPRPRPEMCPRP,-0.104
11,RRIRVRPPRLPRPRPRPSVSPRP,-0.488
12,RRIRPRPPRLPRPRPRPNWLPRP,0.124
13,RRIRSRPPRLPRPRPRPCGNPRP,0.1
14,RRIRCRPPRLPRPRPRPAMKPRP,-0.104
15,RRIRVRPPRLPRPRPRPYTHPRP,-0.912
16,RRIRERPPRLPRPRPRPDFTPRP,-0.233
17,RRIRARPPRLPRPRPRPFQNPRP,-0.124
18,RRIRFRPPRLPRPRPRPEWAPRP,0.398
19,RRIRSRPPRLPRPRPRPHFDPRP,0.0286
20,RRIRMRPPRLPRPRPRPRLSPRP,0.494
21,RRIRQRPPRLPRPRPRPYWRPRP,0.0113
22,RRIRQRPPRLPRPRPRPFVIPRP,-0.131
23,RRIRARPPRLPRPRPRPARTPRP,0.584
24,RRIRCRPPRLPRPRPRPRWEPRP,0.342
25,RRIRNRPPRLPRPRPRPTMYPRP,-0.486

row,Sequence,shrunken log2 fold change
1,RRIRKRPPRLPRPRPRPQLGPRP,0.378
2,RRIRFRPPRLPRPRPRPGTLPRP,-0.422
3,RRIRWRPPRLPRPRPRPCAPPRP,-0.0663
4,RRIRMRPPRLPRPRPRPVGVPRP,0.806
5,RRIRVRPPRLPRPRPRPQCCPRP,-0.185
6,RRIRGRPPRLPRPRPRPKFVPRP,0.458
7,RRIRCRPPRLPRPRPRPFFQPRP,-0.152
8,RRIRWRPPRLPRPRPRPKEAPRP,0.111
9,RRIRCRPPRLPRPRPRPTGEPRP,0.156
10,RRIRDRPPRLPRPRPRPYGHPRP,-0.012
11,RRIRTRPPRLPRPRPRPVRYPRP,-0.028
12,RRIRCRPPRLPRPRPRPFCQPRP,-0.353
13,RRIRPRPPRLPRPRPRPNCCPRP,0.187
14,RRIRQRPPRLPRPRPRPCAMPRP,-0.0872
15,RRIRHRPPRLPRPRPRPFCYPRP,-0.286
16,RRIRDRPPRLPRPRPRPQLGPRP,0.0197
17,RRIRTRPPRLPRPRPRPLADPRP,0.125
18,RRIRFRPPRLPRPRPRPSSGPRP,-0.0411
19,RRIRRRPPRLPRPRPRPFINPRP,-0.211
20,RRIRFRPPRLPRPRPRPSVDPRP,-0.011
21,RRIRWRPPRLPRPRPRPLLGPRP,0.875
22,RRIRCRPPRLPRPRPRPMWWPRP,0.396
23,RRIRHRPPRLPRPRPRPFTDPRP,-0.1
24,RRIRYRPPRLPRPRPRPMGCPRP,-0.0637
25,RRIRGRPPRLPRPRPRPHYQPRP,-0.15

row,Sequence,shrunken log2 fold change
1,RRIRARPPRLPRPRPRPALQPRP,0.354
2,RRIRNRPPRLPRPRPRPDANPRP,-0.318
3,RRIRRRPPRLPRPRPRPHIYPRP,-0.0628
4,RRIRFRPPRLPRPRPRPAYSPRP,0.00204
5,RRIRFRPPRLPRPRPRPPRYPRP,0.246
6,RRIRGRPPRLPRPRPRPHMHPRP,0.448
7,RRIRDRPPRLPRPRPRPFRNPRP,-0.0013
8,RRIRQRPPRLPRPRPRPMRVPRP,0.189
9,RRIRYRPPRLPRPRPRPHECPRP,0.0244
10,RRIRARPPRLPRPRPRPQVIPRP,-0.109
11,RRIRGRPPRLPRPRPRPFEFPRP,-0.157
12,RRIRLRPPRLPRPRPRPMGGPRP,0.26
13,RRIRWRPPRLPRPRPRPAKGPRP,-0.0312
14,RRIRTRPPRLPRPRPRPRCIPRP,0.0613
15,RRIRNRPPRLPRPRPRPWLWPRP,0.165
16,RRIRCRPPRLPRPRPRPMDWPRP,-0.0172
17,RRIRRRPPRLPRPRPRPFGVPRP,0.0764
18,RRIRKRPPRLPRPRPRPMHKPRP,0.351
19,RRIRARPPRLPRPRPRPYYNPRP,-0.97
20,RRIRDRPPRLPRPRPRPPPKPRP,1.09
21,RRIRVRPPRLPRPRPRPCIGPRP,-0.8
22,RRIRMRPPRLPRPRPRPSIAPRP,-0.0688
23,RRIRCRPPRLPRPRPRPQYHPRP,-0.425
24,RRIRARPPRLPRPRPRPNNNPRP,-0.471
25,RRIRDRPPRLPRPRPRPCHLPRP,-0.00196

row,Sequence,shrunken log2 fold change
1,RRIRFRPPRLPRPRPRPWRSPRP,-0.0939
2,RRIRWRPPRLPRPRPRPSQVPRP,-0.0348
3,RRIRTRPPRLPRPRPRPNSHPRP,-0.015
4,RRIRRRPPRLPRPRPRPFILPRP,-0.293
5,RRIRARPPRLPRPRPRPDFPPRP,0.102
6,RRIRNRPPRLPRPRPRPDWWPRP,0.304
7,RRIRVRPPRLPRPRPRPFMNPRP,-0.836
8,RRIRWRPPRLPRPRPRPCHWPRP,-0.116
9,RRIRMRPPRLPRPRPRPDAKPRP,0.937
10,RRIRMRPPRLPRPRPRPLYKPRP,-0.134
11,RRIRERPPRLPRPRPRPAIAPRP,0.0488
12,RRIRTRPPRLPRPRPRPDWIPRP,-0.0498
13,RRIRRRPPRLPRPRPRPWCKPRP,-0.0285
14,RRIRERPPRLPRPRPRPFDGPRP,0.000346
15,RRIRWRPPRLPRPRPRPAFTPRP,0.0598
16,RRIRTRPPRLPRPRPRPRRTPRP,0.338
17,RRIRGRPPRLPRPRPRPKGDPRP,0.0175
18,RRIRSRPPRLPRPRPRPYAKPRP,-0.123
19,RRIRSRPPRLPRPRPRPTGQPRP,0.31
20,RRIRERPPRLPRPRPRPAELPRP,-0.187
21,RRIRNRPPRLPRPRPRPIILPRP,-0.234
22,RRIRPRPPRLPRPRPRPMMDPRP,0.0321
23,RRIRHRPPRLPRPRPRPETCPRP,-0.0251
24,RRIRHRPPRLPRPRPRPRPGPRP,0.324
25,RRIRIRPPRLPRPRPRPFFYPRP,-0.416

row,Sequence,shrunken log2 fold change
1,RRIRARPPRLPRPRPRPYCEPRP,0.0687
2,RRIRTRPPRLPRPRPRPGSIPRP,-0.025
3,RRIRDRPPRLPRPRPRPKREPRP,-0.024
4,RRIRERPPRLPRPRPRPHFNPRP,-0.744
5,RRIRERPPRLPRPRPRPIFTPRP,-0.195
6,RRIRDRPPRLPRPRPRPPDDPRP,0.535
7,RRIRQRPPRLPRPRPRPASWPRP,0.00959
8,RRIRWRPPRLPRPRPRPFNWPRP,-0.0369
9,RRIRVRPPRLPRPRPRPLEDPRP,0.144
10,RRIRLRPPRLPRPRPRPDRAPRP,0.0122
11,RRIRPRPPRLPRPRPRPSVEPRP,-0.00032
12,RRIRLRPPRLPRPRPRPDMNPRP,-0.155
13,RRIRNRPPRLPRPRPRPSHPPRP,0.186
14,RRIRWRPPRLPRPRPRPKHYPRP,0.473
15,RRIRDRPPRLPRPRPRPSHAPRP,0.0738
16,RRIRFRPPRLPRPRPRPNDQPRP,-0.0705
17,RRIRGRPPRLPRPRPRPQKLPRP,0.13
18,RRIRSRPPRLPRPRPRPNGGPRP,-0.0284
19,RRIRCRPPRLPRPRPRPRPIPRP,0.266
20,RRIRWRPPRLPRPRPRPENQPRP,0.353
21,RRIRYRPPRLPRPRPRPIQNPRP,-0.219
22,RRIRHRPPRLPRPRPRPHRYPRP,-0.136
23,RRIRKRPPRLPRPRPRPHLQPRP,0.224
24,RRIRKRPPRLPRPRPRPKGRPRP,0.262
25,RRIRRRPPRLPRPRPRPNYFPRP,-0.323

# From the supplement of paper PMC9112550, “Optimization of the antimicrobial peptide Bac7 by deep mutational scanning” (BMC Biology, 2022)
